The source of these data is patent publication US6682898B2, “High-throughput screening assays for modulators of STAT4 activity” (Tularik Inc., priority 1998, dated 2004).

The term IC50 denotes the concentration that gives 50% inhibition.

Non-standard residues stand in square brackets, D forms with d. Residues, ends and D or L forms follow the SMILES beside them. No end group written: not given here. pY = N[C@@H](Cc1ccc(OP(=O)(O)O)cc1)C(=O)O

Assay [1] addresses T1, STAT6 (Homo sapiens, UniProt P42226).
T1 sequence (P42226 1-847): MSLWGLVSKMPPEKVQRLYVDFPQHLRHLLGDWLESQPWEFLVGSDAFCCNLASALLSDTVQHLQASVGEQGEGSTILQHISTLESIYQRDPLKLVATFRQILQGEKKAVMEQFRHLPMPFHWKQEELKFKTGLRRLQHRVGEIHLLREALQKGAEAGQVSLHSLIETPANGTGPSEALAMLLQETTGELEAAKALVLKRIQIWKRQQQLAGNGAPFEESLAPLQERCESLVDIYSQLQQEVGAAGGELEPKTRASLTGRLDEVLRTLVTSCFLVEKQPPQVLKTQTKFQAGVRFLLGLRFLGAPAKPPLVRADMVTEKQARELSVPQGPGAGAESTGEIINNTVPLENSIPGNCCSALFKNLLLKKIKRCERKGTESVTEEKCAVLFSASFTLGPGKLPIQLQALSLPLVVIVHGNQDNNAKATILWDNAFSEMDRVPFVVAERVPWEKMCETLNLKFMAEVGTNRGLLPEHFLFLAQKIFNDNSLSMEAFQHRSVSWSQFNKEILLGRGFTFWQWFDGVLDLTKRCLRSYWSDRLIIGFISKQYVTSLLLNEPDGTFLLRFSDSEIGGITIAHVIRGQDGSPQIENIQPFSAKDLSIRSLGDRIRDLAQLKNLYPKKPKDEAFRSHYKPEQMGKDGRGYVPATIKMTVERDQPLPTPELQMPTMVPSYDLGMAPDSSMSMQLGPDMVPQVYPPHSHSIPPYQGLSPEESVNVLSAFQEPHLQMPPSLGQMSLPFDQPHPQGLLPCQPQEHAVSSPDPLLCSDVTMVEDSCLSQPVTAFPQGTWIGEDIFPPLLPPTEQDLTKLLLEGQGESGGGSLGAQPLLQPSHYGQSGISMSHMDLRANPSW
As to the kind of experiment: STAT6 binding to phosphotyrosine receptor peptides (IC50 / binding affinity).

Assay [2] deals with T2, STAT6 (UniProt P42226 1-847, limits assumed).
T2 construct: also called STAT6 polypeptide
T2 sequence (looked up): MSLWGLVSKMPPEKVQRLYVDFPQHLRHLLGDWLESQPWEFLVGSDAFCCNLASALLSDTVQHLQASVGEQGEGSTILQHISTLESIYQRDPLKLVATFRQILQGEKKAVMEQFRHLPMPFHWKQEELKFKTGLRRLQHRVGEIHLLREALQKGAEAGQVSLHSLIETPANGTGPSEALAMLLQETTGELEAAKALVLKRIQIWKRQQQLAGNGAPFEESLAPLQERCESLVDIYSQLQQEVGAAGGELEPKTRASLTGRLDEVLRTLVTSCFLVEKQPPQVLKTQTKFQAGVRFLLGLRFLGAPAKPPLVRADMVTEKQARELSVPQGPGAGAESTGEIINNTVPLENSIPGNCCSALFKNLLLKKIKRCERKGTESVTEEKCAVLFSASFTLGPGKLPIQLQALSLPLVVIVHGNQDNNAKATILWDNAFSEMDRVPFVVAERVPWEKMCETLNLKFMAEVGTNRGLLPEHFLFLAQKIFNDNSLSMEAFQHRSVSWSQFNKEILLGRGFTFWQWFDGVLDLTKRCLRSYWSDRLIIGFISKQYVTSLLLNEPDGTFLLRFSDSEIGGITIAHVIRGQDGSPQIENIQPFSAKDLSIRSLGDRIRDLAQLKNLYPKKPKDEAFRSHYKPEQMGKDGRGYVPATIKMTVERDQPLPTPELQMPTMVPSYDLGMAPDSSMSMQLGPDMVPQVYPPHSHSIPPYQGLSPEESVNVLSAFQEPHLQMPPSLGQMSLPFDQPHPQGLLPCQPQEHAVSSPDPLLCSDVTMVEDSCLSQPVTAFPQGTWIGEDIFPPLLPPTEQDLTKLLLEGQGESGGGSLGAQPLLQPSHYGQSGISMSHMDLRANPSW
As to the kind of experiment: binding affinity of the phosphorylated receptor peptide for STAT6; method not stated at the table (paragraph 32 speaks of IC50).

Assay [3] concerns the target T3, STAT4 (UniProt Q14765 1-748, limits assumed).
T3 construct: also called STAT4 polypeptide
T3 sequence (looked up): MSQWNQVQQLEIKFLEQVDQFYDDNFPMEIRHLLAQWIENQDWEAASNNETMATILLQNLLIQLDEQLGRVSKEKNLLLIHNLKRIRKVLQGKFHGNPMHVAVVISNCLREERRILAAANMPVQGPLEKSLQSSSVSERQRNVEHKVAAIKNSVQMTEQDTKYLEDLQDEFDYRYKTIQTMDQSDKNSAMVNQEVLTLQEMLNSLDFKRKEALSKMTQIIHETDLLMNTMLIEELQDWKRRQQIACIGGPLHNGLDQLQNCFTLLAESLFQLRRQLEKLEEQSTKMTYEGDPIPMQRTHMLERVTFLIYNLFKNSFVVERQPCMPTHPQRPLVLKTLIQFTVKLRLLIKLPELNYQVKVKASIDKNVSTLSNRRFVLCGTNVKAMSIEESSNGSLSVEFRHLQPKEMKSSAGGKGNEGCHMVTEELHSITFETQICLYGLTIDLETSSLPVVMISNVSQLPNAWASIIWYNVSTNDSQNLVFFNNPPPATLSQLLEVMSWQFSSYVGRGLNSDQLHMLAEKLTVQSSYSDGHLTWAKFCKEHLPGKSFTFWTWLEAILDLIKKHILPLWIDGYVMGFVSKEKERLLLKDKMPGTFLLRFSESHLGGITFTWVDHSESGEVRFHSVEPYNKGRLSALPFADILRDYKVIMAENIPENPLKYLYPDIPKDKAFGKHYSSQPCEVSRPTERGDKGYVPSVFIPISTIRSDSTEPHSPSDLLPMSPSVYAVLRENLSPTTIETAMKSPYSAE
As to the kind of experiment: binding affinity of the phosphorylated receptor peptide for STAT4; method not stated at the table (paragraph 32 speaks of IC50).

`CC(=O)N[C@@H](Cc1ccc(OP(=O)(O)O)cc1)C(=O)N[C@H](C(=O)N1CCC[C@H]1C(=O)N[C@@H](Cc1c[nH]c2ccccc12)C(N)=O)C(C)C` [Ac-Y^PVPW-NH2] (HELM PEPTIDE1{[ac].[O=C([C@H](Cc1ccc(OP(=O)(O)O)cc1)N[*:1])[*:2]].V.P.W.[am]}$$$$V2.0) gave an IC50 in assay [1] of 1200 nM.
Ac-Y^PVPWQ-NH2 (peptide) came in with a BINDING AFFINITY in assay [2] of 1.5 µM.

B1: SHEGY^PLPSNID (IL-12 receptor) (peptide)
peptide: SHEG[pY]LPSNID
notes: Native IL-12 receptor-derived phosphopeptide; also called IL-12 receptor peptide
For B1, the “BINDING AFFINITY” value in assay [3] turned out to be 2.9 µM.
The same measure, in the same setting: to SHEG[pY]LPWNID [SHEGY^PLPWNID] belongs 0.93 µM; to SHEG[pY]LPQNID [SHEGY^PLPQNID], 0.39 µM.
On the same count and under the same terms, to SHEG[pY]LPHNID [SHEGY^PLPHNID] belongs 0.7 µM; to SHEG[pY]LPNNID [SHEGY^PLPNNID], 0.51 µM.
